Test results published in patent publication US20160136231A1 (ROGNE BIOSCIENCE, published 2016).

Tests used:
Experiment in all cases: cell-based or functional assay
[1] = target: human ChemR23 (CMKLR1), PathHunter β-Arrestin CHO cell line (human, UniProt Q99788 1-373)
[2] = target: T1, GPR1, PathHunter β-Arrestin CHO cell line (human, UniProt P46091 1-355)
T1 sequence (P46091 whole entry, species assumed, looked up): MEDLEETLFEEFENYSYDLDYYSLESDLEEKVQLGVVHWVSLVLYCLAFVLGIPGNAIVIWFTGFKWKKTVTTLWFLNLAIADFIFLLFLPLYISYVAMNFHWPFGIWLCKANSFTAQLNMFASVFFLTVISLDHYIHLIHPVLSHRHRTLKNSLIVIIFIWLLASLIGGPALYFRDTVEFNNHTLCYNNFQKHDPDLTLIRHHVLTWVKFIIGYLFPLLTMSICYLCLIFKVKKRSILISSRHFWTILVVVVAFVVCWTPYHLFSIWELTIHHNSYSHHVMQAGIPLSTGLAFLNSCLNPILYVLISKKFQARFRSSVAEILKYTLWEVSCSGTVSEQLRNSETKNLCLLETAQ

[3] = target: T2, mouse ChemR23, PathHunter β-Arrestin cell line (mouse, UniProt P97468 1-371)
T2 sequence (P97468 whole entry, looked up): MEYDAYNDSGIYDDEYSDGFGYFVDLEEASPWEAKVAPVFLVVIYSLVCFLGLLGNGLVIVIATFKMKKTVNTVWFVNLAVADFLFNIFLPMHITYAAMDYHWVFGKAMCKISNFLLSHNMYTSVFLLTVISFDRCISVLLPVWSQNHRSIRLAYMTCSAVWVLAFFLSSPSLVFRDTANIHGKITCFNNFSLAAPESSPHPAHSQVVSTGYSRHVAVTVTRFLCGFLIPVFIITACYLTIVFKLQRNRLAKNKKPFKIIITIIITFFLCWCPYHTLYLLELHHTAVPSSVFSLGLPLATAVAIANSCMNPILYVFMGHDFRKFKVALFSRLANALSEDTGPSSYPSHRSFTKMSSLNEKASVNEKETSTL

[4] = target: T3, human ChemR23, cAMP Hunter cell line (human, UniProt Q99788 1-373)
T3 sequence (looked up): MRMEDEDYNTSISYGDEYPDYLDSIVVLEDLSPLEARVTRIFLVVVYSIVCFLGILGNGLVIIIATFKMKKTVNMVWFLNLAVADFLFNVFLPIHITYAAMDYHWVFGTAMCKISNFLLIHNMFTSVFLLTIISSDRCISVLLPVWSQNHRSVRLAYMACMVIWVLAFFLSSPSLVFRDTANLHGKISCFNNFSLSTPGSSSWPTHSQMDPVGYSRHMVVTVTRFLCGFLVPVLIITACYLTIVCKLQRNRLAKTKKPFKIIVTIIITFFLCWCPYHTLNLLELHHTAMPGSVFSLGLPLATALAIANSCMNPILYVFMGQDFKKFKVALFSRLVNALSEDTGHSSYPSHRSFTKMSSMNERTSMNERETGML

Row | Binder | % Max Activity, PathHunter β-Arrestin agonist [1] [%] | % Max Inhibition, PathHunter β-Arrestin antagonist against chemerin at EC80 [1] [%] | [EC50] (M), PathHunter β-Arrestin agonist [1] [M] | [IC50] (M), PathHunter β-Arrestin antagonist against chemerin at EC80 [1] [M] | % Max Activity, PathHunter β-Arrestin agonist [2] [%] | % Max Inhibition, PathHunter β-Arrestin antagonist against chemerin at EC80 [2] [%] | [EC50] (M), PathHunter β-Arrestin agonist [2] [M] | [IC50] (M), PathHunter β-Arrestin antagonist against chemerin at EC80 [2] [M] | EC50, Arrestin, Agonist (RC50, uM) [3] [µM] | IC50, Arrestin, Antagonist (RC50, uM) [3] [µM] | IC50, cAMP, Antagonist (RC50, uM) [4] [µM]
1 | AGEDPHSFYFPGQFAF [human chemerin C16 peptide] | 98.6 | 0 | 2.9e-08 | > 1e-05 | 87.9 | 0 | 2.1e-09 | > 1e-05 | 0.0385 | > 10 | > 10
2 | AGEDPHSFYFPGQFA [human chemerin C15 peptide] | 0.8 | 0 | > 1e-05 | > 1e-05 | 10.6 | 0 | 0.017 | > 1e-05 | > 10 | 9.66 | > 10
3 | AGEDPHSFYFPGQFAFS [human chemerin C17 peptide] | 67.5 | 0 | 4.8e-07 | > 1e-05 | 80.9 | 0 | 1.5e-09 | > 1e-05 | 0.84 | > 10 | > 10
4 | AGEDPHGYFLPGQFA [mouse chemerin C15 peptide] | 0.4 | 0 | > 1e-05 | > 1e-05 | 27.8 | 0 | 3.7e-06 | > 1e-05 | > 10 | > 10 | > 10
